This assay addresses Bax (Homo sapiens, UniProt Q07812). It counts as biochemical. The conditions noted are these: 100 nM Bax, 10 μM compound or 20 nM cBid/Bim, no membranes, DSS.

Chain of Bax (Q07812 whole entry): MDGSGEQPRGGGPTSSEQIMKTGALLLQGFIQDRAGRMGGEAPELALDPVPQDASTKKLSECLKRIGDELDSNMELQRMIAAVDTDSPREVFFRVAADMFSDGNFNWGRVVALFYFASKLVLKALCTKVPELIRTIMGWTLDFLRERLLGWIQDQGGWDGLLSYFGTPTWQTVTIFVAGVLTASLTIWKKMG

B1: cBid: known Bax activator protein, pro-apoptotic BH3 protein, recombinant (protein, UniProt P55957 61-195, looked up)
BH3-interacting domain death …: GNRSSHSRLGRIEADSESQEDIIRNIARHLAQVGDSMDRSIPPGLVNGLALQLRNTSRSEEDRNRDLATALEQLLQAYPRDMEKEKTMLVLALLLAKKVASHTPSLLRDVFHTTVNFINQNLRTYVRSLARNGMD
modifications: BH3-interacting domain death agonist p15
With B1, the “formation of dimers and higher-order Bax oligomers in solution” value is “no effects”.

The values are drawn from PMC4847155 (Biochemical Journal, 2016).
